Experimental data: IntAct's records for PubMed 22916205

B1: "Na(+)/H(+) exchange regulatory cofactor-like protein nrfl-1" (Caenorhabditis elegans), G5EDM4-1 (parent)
chain: MVHIPSDVTPPRLCVVEKLNGENEYGYNLHAEKGRGQFVGTVDPDSPAERGGLITGDRIFAVNGHSIIGENHKKVVERIKANPNRCEMLVISEEGAKWYNENNVQITLDLPNIERVSPMSKETPVFVPPPPPPTDAMPYLPRLAELNKGTPDQEFGFNLHAERGRGHFIGTVDAGGIGEKAGLEAGQRIVGVNGQLIYPTTGHKEVVALIKKDTMKTTLLVASEDVDKYHKDHNIAYSWDNVERVDTRPVINVETHHHHEEVSVPKSNGYDVPPLNPHSIQVNEEREISKMTTTTRTETITNSNSAYQYKESSTAYDAYATPPVDSNDLMDEVFGRVNLPGVTMSSHTEVLPPTDDISSVSSLSSHRESAVDVPVSHQYVPSYATESHQKHEQHSQTHHHHHQHQQPSPLSNGSSHGYAASSTSGYDDDDIYHLSAREARERLRMKNRKHHLHEMSLNEKYQLVSNM
partner: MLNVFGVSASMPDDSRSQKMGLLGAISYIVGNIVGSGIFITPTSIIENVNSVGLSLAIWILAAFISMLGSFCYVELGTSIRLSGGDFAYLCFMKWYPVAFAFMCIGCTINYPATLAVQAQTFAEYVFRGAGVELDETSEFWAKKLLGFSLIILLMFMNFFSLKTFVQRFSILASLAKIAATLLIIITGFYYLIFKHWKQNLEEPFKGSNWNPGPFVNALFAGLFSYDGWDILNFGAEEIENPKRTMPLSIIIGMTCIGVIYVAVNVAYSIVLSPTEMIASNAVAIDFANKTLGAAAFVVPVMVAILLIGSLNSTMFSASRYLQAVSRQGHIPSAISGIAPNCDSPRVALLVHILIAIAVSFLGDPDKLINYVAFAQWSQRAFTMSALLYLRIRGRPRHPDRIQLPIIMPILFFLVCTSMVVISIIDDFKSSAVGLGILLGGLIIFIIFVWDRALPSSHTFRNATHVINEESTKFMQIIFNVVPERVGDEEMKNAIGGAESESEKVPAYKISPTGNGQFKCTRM

Variants of: B1
Conditions: with aat6_caeel aat-6, Q22397

Row | Variant | effect of a mutation on the interaction
1 | G26A;Y27A;E154A;F155A | disrupting interaction strength
2 | G26A;Y27A | with no effect
3 | E154A;F155A | decreasing interaction strength
